Source: PMC280649 (BMC Biochemistry, 2003)
“And” between values parts separate entries of the source, which are not always exact repeats. Equal entries are not always repeated.

Columns and labels:
CAR (Homo sapiens) = CAR (Homo sapiens) (UniProt P78310); settings: cited from earlier work
CD31 (Homo sapiens) = CD31 (Homo sapiens) (UniProt P16284); settings: cited from earlier work
CD150 (Homo sapiens) = CD150 (Homo sapiens) (UniProt Q13291); test: SPR; settings: cited from earlier work
NCAM = NCAM (UniProt P13591); settings: cited from earlier work
SPR [1] = target: the molecule itself; test: SPR
SPR [2] = target: the molecule itself; test: SPR; remark: listed apart in the source

Molecule: CAR (from UniProt P78310)
- Kd (CAR (Homo sapiens)): 16 µM

Molecule: CD31 (from UniProt P16284)
- Kd (CD31 (Homo sapiens)): 12.5 µM

Molecule: CD150 (from UniProt Q13291)
- Kd (CD150 (Homo sapiens)): 200 µM

Molecule: NCAM (from UniProt P13591)
- Kd (NCAM): 100 µM

B1: mCD147d0-2rCD4d3+4 (mouse CD147 domains 0 to 2 fused to rat CD4 domains 3 and 4) (domain or fragment, UniProt P18572 22-325, looked up)
chain: AAGFLKAPLSQERWAGGSVVLHCEAVGSPIPEIQWWFEGNAPNDSCSQLWDGARLDRVHIHAAYRQHAASSLSVDGLTAEDTGTYECRASSDPDRNHLTRPPRVKWVRAQASVVVLEPGTIQTSVQEVNSKTQLTCSLNSSGVDIVGHRWMRGGKVLQEDTLPDLHTKYIVDADDRSGEYSCIFLPEPVGRSEINVEGPPRIKVGKKSEHSSEGELAKLVCKSDASYPPITDWFWFKTSDTGEEEAITNSTEANGKYVVVSTPEKSQLTISNLDVNVDPGTYVCNATNAQGTTRETISLRVRSR
modifications: biotin on the C-terminal biotinylation sequence (BirA enzyme) in the immobilised copy; the soluble copy was unbiotinylated
- koff (SPR [1]): 0.7 s⁻¹
- t1/2 (SPR [1]): 1 s
- Kd (SPR [2]): 39 µM and 35 µM
